{"source": "paper PMC2034677", "about": "(Molecular microbiology, 2002)", "proteins": {"B1": {"name": "GST–endoE fusion protein (recombinant bacteriophage K1E endosialidase, wild type) (enzyme, UniProt P49714 1-706, looked up)", "chain": "MIQRLGSSLVKFKSKIAGAIWRNLDDKLTEVVSLKDFGAKGDGKTNDQDAVNAAMASGKRIDGAGATYKVSSLPDMERFYNTRFVWERLAGQPLYYVSKGFINGELYKITDNPYYNAWPQDKAFVYENVIYAPYMGSDRHGVSRLHVSWVKSGDDGQTWSTPEWLTDMHPDYPTVNYHCMSMGVCRNRLFAMIETRTLAKNELTNCALWDRPMSRSLHLTGGITKAANQRYATIHVPDHGLFVGDFVNFSNSAVTGVSGDMKVATVIDKDNFTVLTPNQQTSDLNNAGKNWHMGTSFHKSPWRKTDLGLIPRVTEVHSFATIDNNGFVMGYHQGDVAPREVGLFYFPDAFNSPSNYVRRQIPSEYEPDAAEPCIKYYDGVLYLITRGTRGDRLGSSLHRSRDIGQTWESLRFPHNVHHTTLPFAKVGDDLIMFGSERAENEWEAGAPDDRYKASYPRTFYARLNVNNWNADDIEWVNITDQIYQGDIVNSSVGVGSVVVKDSFIYYIFGGENHFNPMTYGDNKDKDPFKGHGHPTDIYCYKMQIANDNRVSRKFTYGATPGQAIPTFMGTDGIRNIPAPLYFSDNIVTEDTKVGHLTLKASTSANIRSEMQMEGEYGFIGKSVPKDKPTGQRLIICGGEGTSSSSGAQITLHGSNSSNAKRITYNGNEHLFQGAPIMPAVDNQFAAGGPSNRFTTIYLGSDPVTTS"}}, "target": "the molecule itself", "experiment": "native gel or EMSA"}
{"protein": "B1", "values": [{"measurement": "stoichiometry N", "result": 3}]}
